Assay results published in US7514534 (DYAX, dated 2009).

B1: D06 (antibody, human IgG4, V domains shown)
VH: EVQLLESGGGLVQPGGSLRLSCAASGFTFSGYIMEWVRQAPGKGLEWVSVIVSSGGFTMYADSVKGRFTISRDNSKNTLYLQMNSLRAEDTAVYYCARVGDSKGGYYLDYWGQGTLVTVSS
VL: DIQMTQSPSSLSASVGDRVTITCRTSQIINTYLNWYQQKPGKAPKLLIYAASTLQGGVPSRFSGSGSGTDFTLTIKSLQPDDFATYYCQQSYTSPRTFGQGTKVEIKR
notes: whole human IgG4
B2: C08 (antibody, human IgG4, V domains shown)
VH: EVQLLESGGGLVQPGGSLRLSCAASGFTFSYYEMMWVRQAPGKGLEWVSSISPSGGPTMYADSVKGRFTISRDNSKNTLYLQMNSLRAEDTGVYYCARKMGRVGYCSSTSCYRDDYYGMDVWGQGTTVTVSS
VL: DIQMTQSPPSLSALVGDRVTITCRASQSISRYVNWYQQKPGKAPKVLIYAASIVENGVPSRFSGSGSGTDFSLTISSLQPEDFATYYCQQTYSTPLTFGGGTKLAIKR
notes: whole human IgG4
B3: D04 (antibody, human IgG4, V domains shown)
VH: EVQLLESGGGLVQPGGSLRLSCAASGFTFSDYQMMWVRQAPGKGLEWVSRISPSGGMTRYADSVKGRFTISRDNSKNTLYLPMNSLRAEDTAVYYCARSGPYYFDYWGQGTLVTVSS
VL: DIQMTQSPSSLSASVGDRVAITCRASQSIDTYLNWYQQKPGKAPKLLIYAASKLEDGVPSRFSGSGTGTDFTLTIRSLQPEDFASYFCQQSYSSPGITFGPGTKVEIKR
notes: whole human IgG4
B4: A04 (antibody, human IgG4, V domains shown)
VH: EVQLLESGGGLVQPGGSLRLSCAASGFTFSEYNMAWVRQAPGKGLEWVSRIGSSGGKTKYADSVKGRFTISRDNSKNTLYLQMNSLRAEDTAVYYCARDEAPDYGDDAEAFDIWGQGTMVTVSS
VL: QSALTQPPSASGTPGQRVTISCSGGYSNMGSNYAHWYQQVPGTAPKLLIYNNNQRPSGVPDRFSGSKSGTSASLAISGLRSEDEADYYCAAWDENLSGPVFGTGTKVTVLG
notes: whole human IgG4
B5: D02 (antibody, human IgG4, V domains shown)
VH: EVQLLESGGGLVQPGGSLRLSCAASGFTFSWYDMAWVRQAPGKGLEWVSRIVPSGGHTSYADSVKGRFTISRDNFKNTLYLQMNSLRAEDTAVYYCARRASRPEFFDYWGQGALVTVSS
VL: DIQMTQSPSFLSASVGDRVTITCRASQGISTYLAWYQQKPGKAPKVLIYTASTLQSGVPSRFSGSGSGTEFTLTISSLQPEDFATYYCQQSYITPPEVTFGPGTKVDIKR
notes: whole human IgG4
B6: C09 (antibody, human IgG4, V domains shown)
VH: EVQLLESGGGLVQPGGSLRLSCAASGFTFSQYFMNWVRQAPGKGLEWVSYISGGRTPYADSVKGRFTISRDNSKNTLYLQMNSLRAEDTAVYYCAILLGPSSSNHPFLGPWGQGTLVTVSS
VL: DIQMTQSPGTLSLSPGERATLSCRASQSVSSTYLAWYQQKPGQAPRLLISGASSRATGIPDRFSGSGSGTDFTLTISRLEPEDFAVYYCQQYGSSPYTFGQGTKLEIKR
notes: whole human IgG4
B7: C11 (antibody, human IgG4, V domains shown)
VH: EVQLLESGGGLVQPGGSLRLSCAASGFTFSEYPMWWVRQAPGKGLEWVSWIYPSGGNTDYADSVKGRFTISRDNSKNTLYLQMNSLRAEDTAVYYCAIPYCSSSSCPLHWGQGTLVTVSS
VL: QSELTQPPSASGSPGQSVTISCTGTSSDVGGYNYVSWYQQHPDKAPKLLIYEVTQRPSGVPDRFSGSRSGNTASLTVSGLQAEDEADYYCSSYAGRNNLYVFGPGTKVTVLG
notes: whole human IgG4
B8: A03 (antibody, human IgG4, V domains shown)
VH: EVQLLESGGGLVQPGGSLRLSCAASGFTFSIYSMDWVRQAPGKGLEWVSSIYSSGGATRYADSVKGRFTISRDNSKNTLYLQMNSLRAEDTAVYYCARCSWLQLVPMHPWGQGTLVTVSS
VL: QSALTQPPSASGTPGQRVTISCSGGSSNIGSNFVYWYRQLPGTAPKLLIYRNYQRPSGVPDRFSGSKSGTSASLAISGLLSEDEADYYCAAWDDNVGGVFGSGTKVTVLG
notes: whole human IgG4
B9: C10 (antibody, human IgG4, V domains shown)
VH: EVQLLESGGGLVQPGGSLRLSCAASGFTFSVYVMMWVRQAPGKGLEWVSGIVPSGGKTHYADSVKGRFTISRDNSKNTLYLQMNSLRAEDTAVYYCARPDYGGNSRPLEYWGQGTLVTVSS
VL: QSELTQPASVSGSPGQSITISCTGTSSDVGSYNLVSWYQQHPGKAPKLMIYEGSKRPSGVSNRFSGSKSGNTASLTISGLQAEDEADYYCCSYAGSSTYVFGTGTKVTVLG
notes: whole human IgG4
B10: D01 (antibody, V domains shown)
VH: EVQLLESGGGLVQPGGSLRLSCAASGFTFSMYLMFWVRQAPGKGLEWVSVISSSGGETSYADSVKGRFTISRDNSKNTLYLQMNSLRAEDTAVYYCARQVSDWTRLYSFDYWGQGTLVTVSS
VL: QSELTQPPSASGTPGQRITISCSGSSSNIGSNYVYWYQQFPETAPKLLISRNDQRPSGVPDRFSGSKSGTSASLAISGLRSEDEADYYCASWDDSLSGVVFGGGTKLTVLG
notes: whole human IgG4
B11: C07 (antibody, human IgG4, V domains shown)
VH: EVQLLESGGGLVQPGGSLRLSCAASGFTFSYYVMMWVRQAPGKGLEWVSVIRPSGGITTYADSVKGRFTISRDNSKNTLYLQTNSLRAEDTAVYYCAKIDYGGNSFYFDYWGQGTLVTVSS
VL: DIQMTQSPSSLSASVGDRVTITCRASQSISNYLNWYQQRPGKAPKLLIYAASSLERGVPSRFSGSGSGTDFTLTISSLQSEDFATYYCQQSYSPPPLTFGGGTKLEIKR
notes: whole human IgG4
B12: D03 (antibody, human IgG4, V domains shown)
VH: EVQLLESGGGLVQPGGSLRLSCAASGFTFSWYRMDWVRQAPGKGLEWVSVIGSSGGMTYYADSVKGRFTISRDNSKNTLYLQMNSLRAEDTAVYYCARRVVGGAGMDVWGQGTTVTVSS
VL: DIQMTQSPSAMSASVGDRVTITCRASQVMINYIAWFRQKPGKVPERLIYAASTLQNGVPSRFSGSGSGTDFTLTISRLEPEDFAVYYCQHRITWPPALTFGGGTTVEIKR
notes: whole human IgG4

Tests used:
[1] = target: T1, MMP-26 catalytic domain, tagged with hexa-histidine (human, UniProt Q9NRE1 90-261); test: bead-based ELISA, MMP-26 on nickel beads, IgG4 culture supernatant
T1 construct: the forward primer adds Met-Ala before it; also called MMP-26 target protein; Matrilysin-2; not shown: Also any N-terminal residues added by the forward primer (Met-Ala according to our card; the primers were not visible to me)
T1 sequence: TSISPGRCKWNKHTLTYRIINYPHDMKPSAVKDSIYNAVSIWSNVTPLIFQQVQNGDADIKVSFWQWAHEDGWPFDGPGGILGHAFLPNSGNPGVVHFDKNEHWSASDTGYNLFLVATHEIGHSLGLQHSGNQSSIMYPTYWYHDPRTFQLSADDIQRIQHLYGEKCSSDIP
Method: Reformatted and expressed full-length MMP-26 binding IgG4 antibodies were tested for specificity in a bead-based ELISA. Approximately 1.25 μg of MMP-26 protein was bound to nickel-coated magnetic beads (Novagen) which had been pre-blocked with phosphate buffered saline containing 5% (w/v) nonfat dry milk and 0.05% (v/v) Tween-20. The beads were washed in phosphate buffered saline containing 0.05% (v/v) Tween-20 (PBS-T) and 100 uls of unpurified cell culture supernatant containing transiently produced MMP-26-binding antibodies was added and incubated on a rotator for sixty minutes. The beads were washed with PBS-T and MMP-26-binding antibodies were detected with an HRP-conjugated anti-human secondary antibody. Data is expressed in fold over background where background consists of beads, blocking agent, and culture supernatant containing target antibody (Table 2; in this table, Results shown as fold over background (F>B) where background consists of beads, blocking agent, and culture supernatant).

MMP-3 = target: T2, MMP-3 (UniProt P08254 100-477, limits assumed); test: cross-reactivity ELISA on coated MMP
T2 construct: also called stromelysin-1
Method: (§1) Twenty-one of the reformatted MMP-26 antibodies were tested for MMP cross reactivity by ELISA analysis. MMP-3, MMP-7, MMP-9, and MMP-12 were coated onto Immulon 2 HB 96-well plates at a concentration of 1 μg/ml for 1 hour at 37° C. The plates were blocked with PBS-T containing 5% (w/v) nonfat dry milk for thirty minutes and subsequently washed with PBS-T. Each antibody was tested for reactivity to all of the above mentioned MMPs at a concentration of 2 μg/ml with an incubation time of 1 hour. Bound antibody was detected with an HRP-conjugated anti-human secondary antibody (Table 3, NT=not tested.).

MMP-9 = target: T3, MMP-9 (UniProt P14780 107-707, limits assumed); test: cross-reactivity ELISA on coated MMP
T3 construct: also called gelatinase
Method: as §1

T2 sequence (P08254 100-477 limits assumed): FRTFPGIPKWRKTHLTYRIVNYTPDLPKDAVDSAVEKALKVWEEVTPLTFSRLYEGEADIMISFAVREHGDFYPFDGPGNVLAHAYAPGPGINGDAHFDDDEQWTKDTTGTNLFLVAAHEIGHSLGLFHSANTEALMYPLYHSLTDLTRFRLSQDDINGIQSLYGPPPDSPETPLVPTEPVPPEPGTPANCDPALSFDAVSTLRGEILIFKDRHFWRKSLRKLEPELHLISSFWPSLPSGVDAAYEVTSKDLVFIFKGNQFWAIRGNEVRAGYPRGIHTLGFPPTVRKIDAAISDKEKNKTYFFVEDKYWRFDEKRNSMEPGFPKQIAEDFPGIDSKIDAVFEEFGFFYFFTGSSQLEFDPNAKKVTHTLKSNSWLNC
T3 sequence (P14780 107-707 limits assumed): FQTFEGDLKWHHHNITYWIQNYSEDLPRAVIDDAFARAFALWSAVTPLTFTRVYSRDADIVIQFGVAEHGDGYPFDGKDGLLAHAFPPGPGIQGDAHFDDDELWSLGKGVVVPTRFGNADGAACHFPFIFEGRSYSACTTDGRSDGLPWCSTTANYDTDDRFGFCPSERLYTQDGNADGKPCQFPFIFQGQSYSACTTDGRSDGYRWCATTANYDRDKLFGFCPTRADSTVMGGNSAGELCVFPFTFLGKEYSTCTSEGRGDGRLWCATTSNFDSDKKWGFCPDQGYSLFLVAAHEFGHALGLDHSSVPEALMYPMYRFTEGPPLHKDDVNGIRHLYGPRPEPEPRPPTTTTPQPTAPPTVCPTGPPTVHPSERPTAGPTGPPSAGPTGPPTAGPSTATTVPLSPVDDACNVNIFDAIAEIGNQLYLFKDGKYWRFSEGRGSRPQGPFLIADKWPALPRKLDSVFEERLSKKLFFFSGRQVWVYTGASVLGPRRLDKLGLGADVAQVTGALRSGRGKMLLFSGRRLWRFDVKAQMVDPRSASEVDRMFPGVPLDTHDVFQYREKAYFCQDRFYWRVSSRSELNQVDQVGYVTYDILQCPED

Row | Binder | F > B (fold over background) [1] [fold over background] | binding result (MMP-3) | binding result (MMP-9)
1 | B1 | 3.5 | no binding (tested: 2 µg/ml) | no binding (tested: 2 µg/ml)
2 | B2 | 3.4 | no binding (tested: 2 µg/ml) | no binding (tested: 2 µg/ml)
3 | B3 | 2.6 | no binding (tested: 2 µg/ml) | no binding (tested: 2 µg/ml)
4 | B4 | 3.17 | no binding (tested: 2 µg/ml) | no binding (tested: 2 µg/ml)
5 | B5 | 3.3 | no binding (tested: 2 µg/ml) | no binding (tested: 2 µg/ml)
6 | B6 | 3.4 | no binding (tested: 2 µg/ml) | no binding (tested: 2 µg/ml)
7 | B7 | 2.6 | no binding (tested: 2 µg/ml) | no binding (tested: 2 µg/ml)
8 | B8 | 3.54 | no binding (tested: 2 µg/ml) | no binding (tested: 2 µg/ml)
9 | B9 | 3.41 | no binding (tested: 2 µg/ml) | no binding (tested: 2 µg/ml)
10 | B10 | 3 | no binding (tested: 2 µg/ml) | no binding (tested: 2 µg/ml)
11 | B11 | 3.12 | no binding (tested: 2 µg/ml) | no binding (tested: 2 µg/ml)
12 | B12 | 2.4 | no binding (tested: 2 µg/ml) | no binding (tested: 2 µg/ml)
